The text below walks through data of article PMC4083092.

In series [1] the target is T1, CPEB1 RRM12 (tandem RRMs) (Homo sapiens, UniProt Q9BZB8 285-355+361-514, internal_change). Briefly: NMR titration and solution structure.
For series [2], the target named is T2, CPEB4 RRM12 (tandem RRMs) (Homo sapiens, UniProt Q17RY0-3 54-256).
T2 sequence: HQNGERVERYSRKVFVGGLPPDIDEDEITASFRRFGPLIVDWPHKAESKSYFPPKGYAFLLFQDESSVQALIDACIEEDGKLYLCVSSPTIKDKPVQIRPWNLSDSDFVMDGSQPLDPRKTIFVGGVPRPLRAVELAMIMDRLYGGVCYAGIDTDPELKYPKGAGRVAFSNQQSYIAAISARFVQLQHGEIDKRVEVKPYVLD
In words: NMR titration.

Series [3] addresses T1, CPEB1 RRM12 (tandem RRMs). In words: NMR titration.
The target in series [4] is CPEB1 ZZ domain (isolated) (Homo sapiens, UniProt Q9BZB8 503-566). In words: NMR titration.
In series [5] the target is T1, CPEB1 RRM12 (tandem RRMs). Briefly: NMR.

As to UUUUA (ssRNA), in series [1], the binding result is listed as “binds”.
With UUUUAU (ssRNA) [UUUUAU (consensus CPE)], the binding result in series [2] and in series [3] was “binds” throughout.
With UUUUUAU (ssRNA) [UUUUUAU (consensus CPE)], the binding result in series [4] is on record as “no binding”.
Turning to CUUUA (ssRNA), in series [5], the binding result is on record as “binds”.
